Laboratory results reported in patent US8398971B2, “Methods, compounds, and compositions for treatment and prophylaxis in the respiratory tract” (NexBio, Inc., priority 2009, dated 2013).
“And” between values parts separate entries of the source, which are not always exact repeats. Identical values can stand only once. “Also recorded” adds a separate entry of the source. Like-named read-outs stand apart in the source and are kept apart here.

Assays:
[1] = test system: influenza A (H1N1) virus; assay type: in vivo, ferrets; settings: for inflammatory response of infected ferrets: topical administration
[2] = pH 5; cited from earlier work
[3] = test system: acute OVA challenge mouse model of asthma; assay type: in vivo, BALB/c mice; settings: 0.6 mg/kg intranasal one hour prior to each OVA challenge; day 31
[4] = test system: acute OVA challenge mouse model of asthma; experiment: blood eosinophil counts in OVA mouse model of asthma; assay type: in vivo, BALB/c mice; settings: 0.6 mg/kg intranasal
[5] = test system: acute OVA challenge mouse model of asthma; experiment: PAS staining for lung mucus in OVA mouse model of asthma; design: species or system BALB/c mice; settings: in vivo
[6] = molecular target: M2 muscarinic receptor (Homo sapiens, UniProt P08172); experiment: M2 muscarinic receptor signaling in chem-1 cells (intracellular calcium); assay type: cell-based; settings: 0.4, 2 or 10 μM
[7] = molecular target: T1, M3 muscarinic receptor (Homo sapiens, UniProt P20309); experiment: M3 muscarinic receptor signaling in chem-1 cells (intracellular calcium); assay type: cell-based; settings: 0.4, 2 or 10 μM
T1 construct: host or cells: chem-1 cells

[8] = test system: guinea pig model of allergic asthma; experiment: allergen-induced early asthmatic reaction (PenH) in conscious unrestrained guinea pigs; assay type: in vivo; settings: for decrease of early asthmatic reaction (PenH) after OVA aerosol: OVA guinea pigs; for basal PenH: guinea pig, in vivo, 0.3 mg/kg
[9] = test system: guinea pig model of allergic asthma; experiment: cell count and differentiation in broncho-alveolar lavage fluid of guinea pigs; assay type: in vivo

T1 sequence (P20309 whole entry): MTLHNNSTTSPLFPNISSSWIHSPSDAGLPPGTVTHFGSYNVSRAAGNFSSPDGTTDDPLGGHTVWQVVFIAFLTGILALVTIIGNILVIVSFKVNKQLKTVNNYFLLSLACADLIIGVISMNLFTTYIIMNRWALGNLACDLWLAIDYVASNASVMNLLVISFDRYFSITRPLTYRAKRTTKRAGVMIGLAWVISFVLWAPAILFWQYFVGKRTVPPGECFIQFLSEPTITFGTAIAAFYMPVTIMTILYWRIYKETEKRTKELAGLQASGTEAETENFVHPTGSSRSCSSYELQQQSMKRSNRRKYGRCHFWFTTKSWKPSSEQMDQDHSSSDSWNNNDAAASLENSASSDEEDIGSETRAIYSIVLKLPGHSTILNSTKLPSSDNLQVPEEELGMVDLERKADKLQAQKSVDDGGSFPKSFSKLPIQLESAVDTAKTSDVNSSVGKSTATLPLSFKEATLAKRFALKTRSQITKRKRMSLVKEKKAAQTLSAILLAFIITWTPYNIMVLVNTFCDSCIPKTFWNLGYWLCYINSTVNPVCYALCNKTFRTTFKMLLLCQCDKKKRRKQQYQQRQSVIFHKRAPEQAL
Sequence of M2 muscarinic receptor (P08172 whole entry): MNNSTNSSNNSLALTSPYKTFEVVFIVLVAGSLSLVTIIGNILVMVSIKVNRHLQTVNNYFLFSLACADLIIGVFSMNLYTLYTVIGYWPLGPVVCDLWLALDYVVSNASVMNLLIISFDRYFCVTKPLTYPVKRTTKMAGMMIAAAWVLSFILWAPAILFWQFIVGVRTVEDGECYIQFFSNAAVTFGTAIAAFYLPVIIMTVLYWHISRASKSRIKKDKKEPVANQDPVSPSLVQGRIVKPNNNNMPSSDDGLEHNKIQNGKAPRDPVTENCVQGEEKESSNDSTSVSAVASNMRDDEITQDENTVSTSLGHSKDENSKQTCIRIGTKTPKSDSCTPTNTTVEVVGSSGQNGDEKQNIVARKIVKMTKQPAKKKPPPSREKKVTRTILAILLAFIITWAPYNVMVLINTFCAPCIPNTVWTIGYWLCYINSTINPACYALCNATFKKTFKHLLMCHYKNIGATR

B1: AR-AvCD: recombinant AR-AvCD sialidase fusion protein made from Construct #2 (FIG. 5, SEQ ID NOs: 18 & 19) (protein)
chain: MVKRKKKGGKNGKNRRNRKKKNPGDHPQATPAPAPDASTELPASMSQAQHLAANTATDNYRIPAITTAPNGDLLISYDERPKDNGNGGSDAPNPNHIVQRRSTDGGKTWSAPTYIHQGTETGKKVGYSDPSYVVDHQTGTIFNFHVKSYDQGWGGSRGGTDPENRGIIQAEVSTSTDNGWTWTHRTITADITKDKPWTARFAASGQGIQIQHGPHAGRLVQQYTIRTAGGAVQAVSVYSDDHGKTWQAGTPIGTGMDENKVVELSDGSLMLNSRASDGSGFRKVAHSTDGGQTWSEPVSDKNLPDSVDNAQIIRAFPNAAPDDPRAKVLLLSHSPNPRPWSRDRGTISMSCDDGASWTTSKVFHEPFVGYTTIAVQSDGSIGLLSEDAHNGADYGGIWYRNFTMNWLGEQCGQKPAEGADYGGIWYRNFTMNWLGEQCGQKPAE
[1]; 8 infected treated ferrets
  reduction of mean AUC of nasal protein concentrations vs vehicle-treated infected animals: approximately 40%
[1]; 8 infected treated ferrets that shed virus, vehicle 4.48
  mean AUC of nasal protein concentrations: 2.68 arbitrary units
[1]; in vivo
  reduction of AUC value for cell counts vs vehicle-treated infected animals: approximately 3 fold
[1]; infected treated ferrets, vehicle 1965
  AUC value for inflammatory cell counts in nasal washes: 674 arbitrary units
[1]
  inflammatory response of infected ferrets: reduces the inflammatory responses
[1]; listed as fusion protein
  inflammatory response of infected ferrets: the inflammatory response was reduced
[1]; vs vehicle-treated infected animals
  number of inflammatory cells in the nasal washes: significant reduction in the number of inflammatory cells

B2: A. viscosus: bacterial sialidase enzyme from Actinomyces viscosus (SEQ ID NO:12) (protein, listed as Actinomyces viscosus)
chain: MTSHSPFSRRRLPALLGSLPLAATGLIAAAPPAHAVPTSDGLADVTITQVNAPADGLYSVGDVMTFNITLTNTSGEAHSYAPASTNLSGNVSKCRWRNVPAGTTKTDCTGLATHTVTAEDLKAGGFTPQIAYEVKAVEYAGKALSTPETIKGATSPVKANSLRVESITPSSSQENYKLGDTVSYTVRVRSVSDKTINVAATESSFDDLGRQCHWGGLKPGKGAVYNCKPLTHTITQADVDAGRWTPSITLTATGTDGATLQTLTATGNPINVVGDHPQATPAPAPDASTELPASMSQAQHLAANTATDNYRIPAITTAPNGDLLISYDERPKDNGNGGSDAPNPNHIVQRRSTDGGKTWSAPTYIHQGTETGKKVGYSDPSYVVDHQTGTIFNFHVKSYDQGWGGSRGGTDPENRGIIQAEVSTSTDNGWTWTHRTITADITKDKPWTARFAASGQGIQIQHGPHAGRLVQQYTIRTAGGAVQAVSVYSDDHGKTWQAGTPIGTGMDENKVVELSDGSLMLNSRASDGSGFRKVAHSTDGGQTWSEPVSDKNLPDSVDNAQIIRAFPNAAPDDPRAKVLLLSHSPNPRPWSRDRGTISMSCDDGASWTTSKVFHEPFVGYTTIAVQSDGSIGLLSEDAHNGADYGGIWYRNFTMNWLGEQCGQKPAEPSPAPSPTAAPSAAPTEKPAPSAAPSAEPTQAPAPSSAPEPSAAPEPSSAPAPEPTTAPSTEPTPAPAPSSAPEQTDGPTAAPAPETSSAPAAEPTQAPTVAPSVEPTQAPGAQPSSAPKPGATGRAPSVVNPKATGAATEPGTPSSSASPAPSRNAAPTPKPGMEPDEIDRPSDGTMAQPTGGASAPSAAPTQAAKAGSRLSRTGTNALLILGLAGVAVVGGYLLLRARRSKN
[2]
  stability in buffer: stable

B3: DAS181: fusion protein comprising a catalytic domain of a sialidase, and an anchoring domain (SEQ ID NO:21) (protein)
chain: MGDHPQATPAPAPDASTELPASMSQAQHLAANTATDNYRIPAITTAPNGDLLISYDERPKDNGNGGSDAPNPNHIVQRRSTDGGKTWSAPTYIHQGTETGKKVGYSDPSYVVDHQTGTIFNFHVKSYDQGWGGSRGGTDPENRGIIQAEVSTSTDNGWTWTHRTITADITKDKPWTARFAASGQGIQIQHGPHAGRLVQQYTIRTAGGAVQAVSVYSDDHGKTWQAGTPIGTGMDENKVVELSDGSLMLNSRASDGSGFRKVAHSTDGGQTWSEPVSDKNLPDSVDNAQIIRAFPNAAPDDPRAKVLLLSHSPNPRPWSRDRGTISMSCDDGASWTTSKVFHEPFVGYTTIAVQSDGSIGLLSEDAHNGADYGGIWYRNFTMNWLGEQCGQKPAKRKKKGGKNGKNRRNRKKKNP
[3]
  Penh at 48 mg/ml Mch vs OVA challenged mice: reduction in Penh
[4]
  blood eosinophils vs OVA challenged mice: significantly reduced blood eosinophils
[5]
  PAS staining of airway epithelium (lung mucus) vs OVA challenged mice: statistically significant reduction in PAS staining; also recorded: significantly reduced PAS staining
[6]
  effect on potency of agonist-mediated M2 receptor signaling: increased the potency of agonist-mediated M2 receptor signaling
[7]
  effect on potency of agonist-mediated M3 receptor signaling: decreased the potency of agonist-mediated M3 receptor signaling
[8]; treated on day 15, vs sodium sulfate
  decrease of early asthmatic reaction (PenH) after OVA aerosol: ~30%
[8]; treated on day 20
  decrease of early asthmatic reaction (PenH) after OVA aerosol: not on day 20
[8]
  basal PenH: 0.25±0.01 and 0.28±0.01
[8]; listed as Fludase®
  basal PenH: 0.27±0.02 and 0.31±0.03
[9]; guinea pig, in vivo
  number of eosinophils in BAL fluid: restore the number of eosinophils up to historical control levels
  number of lymphocytes in BAL fluid: decreased
[9]; inflammation caused by SOD or OVA
  number of all inflammatory cells (macrophages, lymphocytes, neutrophils and eosinophils): significantly decreased
[9]; saline and OVA groups
  neutrophil influx into the lungs (BAL): completely prevented this influx
[9]; saline and OVA guinea pigs
  total number of cells in BAL fluid: decreases the total number of cells
[9]; treatment on day 15 and 20, saline and OVA guinea pigs
  total number of macrophages in BAL fluid: strongly decreased
